Measurements taken from article PMC2756588.

T1: Abp1, P15891
T1 sequence (P15891 535-592, looked up): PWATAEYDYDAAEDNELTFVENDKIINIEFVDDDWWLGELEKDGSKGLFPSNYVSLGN

T2: Bbc1, P47068
T2 sequence (P47068 1-78, looked up): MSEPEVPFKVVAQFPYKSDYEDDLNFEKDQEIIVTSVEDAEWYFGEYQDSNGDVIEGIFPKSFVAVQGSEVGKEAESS

T3: Boi1, P38041
T3 sequence (P38041 1-86, looked up): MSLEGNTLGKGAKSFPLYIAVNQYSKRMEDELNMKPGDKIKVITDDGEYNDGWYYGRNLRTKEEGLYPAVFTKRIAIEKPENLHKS

T4: Boi2, P39969
T4 sequence (P39969 32-116, looked up): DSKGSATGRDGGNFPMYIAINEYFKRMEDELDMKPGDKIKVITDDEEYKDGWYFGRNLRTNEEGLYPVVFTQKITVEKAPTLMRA

T5: Bud14, P27637
T5 sequence (P27637 247-328, looked up): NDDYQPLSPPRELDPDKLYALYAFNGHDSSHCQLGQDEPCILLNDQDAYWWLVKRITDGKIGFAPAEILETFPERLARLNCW

T6: Bzz1-1, P38822
T6 sequence (P38822 478-572, looked up): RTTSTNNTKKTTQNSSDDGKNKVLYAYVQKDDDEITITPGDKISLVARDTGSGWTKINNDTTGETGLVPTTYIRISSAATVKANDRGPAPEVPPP

T7: Bzz1-2, P38822
T7 sequence (P38822 568-633, looked up): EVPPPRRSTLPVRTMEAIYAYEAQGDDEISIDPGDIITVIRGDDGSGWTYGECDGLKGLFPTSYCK

T8: Cdc25, P04821
T8 sequence (P04821 50-136, looked up): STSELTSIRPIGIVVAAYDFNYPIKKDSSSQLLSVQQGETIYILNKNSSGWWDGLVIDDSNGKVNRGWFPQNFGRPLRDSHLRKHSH

T9: Cyk3, Q07533
T9 sequence (Q07533 1-83, looked up): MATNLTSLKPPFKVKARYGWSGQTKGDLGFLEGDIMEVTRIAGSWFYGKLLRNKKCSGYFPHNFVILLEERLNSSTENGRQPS

T10: Fus1, P11710
T10 sequence (P11710 432-512, looked up): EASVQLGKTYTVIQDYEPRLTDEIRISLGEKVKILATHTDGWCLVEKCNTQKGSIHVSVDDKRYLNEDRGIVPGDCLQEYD

T11: Hof1, Q05080
T11 sequence (Q05080 590-669, looked up): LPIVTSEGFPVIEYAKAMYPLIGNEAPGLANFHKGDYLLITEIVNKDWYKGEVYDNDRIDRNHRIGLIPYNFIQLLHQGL

T12: Hse1, P38753
T12 sequence (P38753 208-285, looked up): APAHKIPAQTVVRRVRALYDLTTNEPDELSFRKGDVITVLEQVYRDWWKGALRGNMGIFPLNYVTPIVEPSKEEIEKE

T13: Lsb1, P53281
T13 sequence (P53281 45-122, looked up): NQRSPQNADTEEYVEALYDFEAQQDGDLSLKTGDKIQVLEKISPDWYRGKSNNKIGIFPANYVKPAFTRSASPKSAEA

T14: Lsb3, P43603
T14 sequence (P43603 385-451, looked up): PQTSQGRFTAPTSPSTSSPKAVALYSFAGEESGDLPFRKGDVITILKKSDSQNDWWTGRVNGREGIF

T15: Lsb4, P32793
T15 sequence (P32793 402-468, looked up): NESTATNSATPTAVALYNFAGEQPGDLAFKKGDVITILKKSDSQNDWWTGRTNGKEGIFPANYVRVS

T16: Myo5, Q04439
T16 sequence (Q04439 1072-1160, looked up): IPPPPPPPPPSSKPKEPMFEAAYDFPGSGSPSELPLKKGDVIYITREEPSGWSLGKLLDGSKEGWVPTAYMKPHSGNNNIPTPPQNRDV

T17: Nbp2, Q12163
T17 sequence (Q12163 103-180, looked up): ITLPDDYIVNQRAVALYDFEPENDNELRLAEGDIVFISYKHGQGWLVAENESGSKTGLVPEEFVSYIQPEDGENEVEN

T18: Pex13, P80667
T18 sequence (P80667 295-386, looked up): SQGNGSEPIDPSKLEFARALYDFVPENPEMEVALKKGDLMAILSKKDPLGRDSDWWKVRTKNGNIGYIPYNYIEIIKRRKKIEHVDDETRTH

T19: Pin3, Q06449
T19 sequence (Q06449 53-122, looked up): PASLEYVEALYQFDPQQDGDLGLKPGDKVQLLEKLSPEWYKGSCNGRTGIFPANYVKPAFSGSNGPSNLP

T20: Sla1-2, P32790
T20 sequence (P32790 60-140, looked up): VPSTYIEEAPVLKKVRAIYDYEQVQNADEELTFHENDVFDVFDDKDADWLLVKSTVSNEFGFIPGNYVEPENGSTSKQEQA

T21: Sla1-3, P32790
T21 sequence (P32790 344-424, looked up): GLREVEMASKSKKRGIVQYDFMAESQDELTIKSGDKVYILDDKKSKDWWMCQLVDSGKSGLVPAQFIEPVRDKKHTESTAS

B1: unnamed (peptide)
chain: TSIEIPKRSPLRFTS
B2: unnamed (peptide)
chain: VFQFQMPTTPISTKM
B3: unnamed (peptide)
chain: PKMLPIPSKPTLFDL

target: T1, Abp1, P15891; experiment: SPOT array; conditions: median of control spots 935

SPOT intensity | Binder
60 | B1
32 | B2
173 | B3

target: T2, Bbc1, P47068; experiment: SPOT array; conditions: median of control spots 796

SPOT intensity | Binder
12 | B1
0 | B2
0 | B3

target: Bem1-1, P29366; experiment: SPOT array; conditions: median of control spots 4282
Sequence (P29366 55-141): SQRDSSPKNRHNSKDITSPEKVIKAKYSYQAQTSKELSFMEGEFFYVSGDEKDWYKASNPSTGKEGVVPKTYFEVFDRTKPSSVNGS

SPOT intensity | Binder
0 | B1
0 | B2
0 | B3

target: Bem1-2, P29366; experiment: SPOT array; conditions: median of control spots 4347
Sequence (P29366 139-227): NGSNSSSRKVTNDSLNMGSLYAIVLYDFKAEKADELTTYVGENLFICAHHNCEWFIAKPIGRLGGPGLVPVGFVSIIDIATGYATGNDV

SPOT intensity | Binder
0 | B1
5 | B2
0 | B3

target: T3, Boi1, P38041; experiment: SPOT array; conditions: median of control spots 1162

SPOT intensity | Binder
3040 | B1
0 | B2
0 | B3

target: T4, Boi2, P39969; experiment: SPOT array; conditions: median of control spots 1161

SPOT intensity | Binder
2740 | B1
0 | B2
0 | B3

target: T5, Bud14, P27637; experiment: SPOT array; conditions: median of control spots 956

SPOT intensity | Binder
5 | B1
0 | B2
0 | B3

target: T6, Bzz1-1, P38822; experiment: SPOT array; conditions: median of control spots 4446

SPOT intensity | Binder
0 | B1
1 | B2
0 | B3

target: T7, Bzz1-2, P38822; experiment: SPOT array; conditions: median of control spots 4538

SPOT intensity | Binder
0 | B1
0 | B2
0 | B3

target: T8, Cdc25, P04821; experiment: SPOT array; conditions: median of control spots 969

SPOT intensity | Binder
13 | B1
0 | B2
0 | B3

target: T9, Cyk3, Q07533; experiment: SPOT array; conditions: median of control spots 1451

SPOT intensity | Binder
0 | B1
0 | B2
0 | B3

target: T10, Fus1, P11710; experiment: SPOT array; conditions: median of control spots 1200

SPOT intensity | Binder
0 | B1
0 | B2
0 | B3

target: GST; experiment: SPOT array; conditions: median of control spots 978

SPOT intensity | Binder
0 | B1
0 | B2
1 | B3

target: T11, Hof1, Q05080; experiment: SPOT array; conditions: median of control spots 4086

SPOT intensity | Binder
0 | B1
0 | B2
0 | B3

target: T12, Hse1, P38753; experiment: SPOT array; conditions: median of control spots 1727

SPOT intensity | Binder
0 | B1
0 | B2
0 | B3

target: T13, Lsb1, P53281; experiment: SPOT array; conditions: median of control spots 388

SPOT intensity | Binder
0 | B1
1 | B2
2 | B3

target: T14, Lsb3, P43603; experiment: SPOT array; conditions: median of control spots 406

SPOT intensity | Binder
5 | B1
14 | B2
15 | B3

target: T15, Lsb4, P32793; experiment: SPOT array; conditions: median of control spots 397

SPOT intensity | Binder
8 | B1
39 | B2
42 | B3

target: Myo3, P36006; experiment: SPOT array; conditions: median of control spots 468

SPOT intensity | Binder
4 | B1
32 | B2
36 | B3

target: T16, Myo5, Q04439; experiment: SPOT array; conditions: median of control spots 471

SPOT intensity | Binder
2 | B1
74 | B2
52 | B3

target: T17, Nbp2, Q12163; experiment: SPOT array; conditions: median of control spots 357

SPOT intensity | Binder
0 | B1
3 | B2
19 | B3

target: T18, Pex13, P80667; experiment: SPOT array; conditions: median of control spots 1341

SPOT intensity | Binder
19 | B1
219 | B2
52 | B3

target: T19, Pin3, Q06449; experiment: SPOT array; conditions: median of control spots 2171

SPOT intensity | Binder
10 | B1
125 | B2
69 | B3

target: Rvs167, P39743; experiment: SPOT array; conditions: median of control spots 2707
Sequence (P39743 419-482): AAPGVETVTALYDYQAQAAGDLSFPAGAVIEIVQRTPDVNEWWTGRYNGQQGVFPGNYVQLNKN

SPOT intensity | Binder
0 | B1
0 | B2
0 | B3

target: Sho1, P40073; experiment: SPOT array; conditions: median of control spots 1148
Sequence (P40073 287-367): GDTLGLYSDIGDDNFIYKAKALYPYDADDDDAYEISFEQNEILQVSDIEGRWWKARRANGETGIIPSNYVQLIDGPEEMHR

SPOT intensity | Binder
8 | B1
46 | B2
164 | B3

target: T20, Sla1-2, P32790; experiment: SPOT array; conditions: median of control spots 712

SPOT intensity | Binder
792 | B1
7 | B2
3 | B3

target: T21, Sla1-3, P32790; experiment: SPOT array; conditions: median of control spots 5475

SPOT intensity | Binder
0 | B1
0 | B2
0 | B3
